Columns and labels:
[1] = system: patients with hypercholesterolemia at high CV risk not adequately controlled with atorvastatin (20 mg or 40 mg); test: Example 2: anti-mAb316P anti-drug antibody (ADA) status; format: in vivo, human
[2] = system: patients with hypercholesterolemia at high CV risk not adequately controlled with rosuvastatin (10 mg or 20 mg); details: in vivo
[3] = system: patients with hypercholesterolemia at high CV risk not adequately controlled with atorvastatin (20 mg or 40 mg); test: Example 2: safety, treatment-emergent adverse events in pooled treatment groups
Description: For the pooled data, three treatment groups are formed by combining treatment arms regardless of the atorvastatin doses as follows:
(2) EZE treatment group: pooling EZE+atorva 20 mg arm and EZE+atorva 40 mg arm;

[4] = of the five ADA positive patients
[5] = Safety Population, pooled treatment groups

Substance: mAb316P: human anti-PCSK9 antibody; heavy chain SEQ ID NO:5, light chain SEQ ID NO:9
- Treatment-emergent ADA positive responses ([1]; 5 of 99 patients in the pooled mAb316P add-on group): 5.1%
- overall immunogenicity ([1]; in vivo): immunogenicity was low
- positive mAb316P-neutralizing antibody status ([1]; of patients with positive ADA status): One and one
- treatment-emergent ADA: persistent responses [1, 4]: three
- treatment-emergent ADA: transient response [1, 4]: one
- 2 consecutive calculated LDL-C measurements below 25 mg/dL [2]: 13 (12.6%) patients (%)
- General Allergic TEAEs [2]: 11 (10.7%) patients (%)
- SOC General disorders and administration site conditions [2]: 15 (14.6%) patients (%)
- SOC Immune system disorders [2]: 1 (1.0%) patients (%)
- SOC Psychiatric disorders [2]: 5 (4.9%) patients (%)
- SOC Respiratory, thoracic and mediastinal disorders [2]: 7 (6.8%) patients (%)
- SOC Skin and subcutaneous tissue disorders [2]: 8 (7.8%) patients (%)
- TEAE accidental overdose [2]: 3 patients
- TEAE arthralgia [2]: 4 patients
- TEAE constipation [2]: 2 patients
- TEAE diarrhea [2]: 2 patients
- TEAE dizziness [2]: 3 patients
- TEAE fatigue [2]: 3 patients
- TEAE hypokalaemia [2]: 2 patients
- TEAE laceration [2]: 3 patients
- TEAE local swelling [2]: 2 patients
- TEAE myalgia [2]: 4 patients
- TEAE nasopharyngitis [2]: 4 patients
- TEAE nausea [2]: 3 patients
- TEAE pain in extremity [2]: 2 patients
- TEAE sciatica [2]: 2 patients
- TEAEs [2]: 58 (56.3%) patients (%)
- Treatment-emergent SAEs [2]: 6 (5.8%) patients (%)
- Treatment-emergent cardiovascular events adjudicated positively [2]: Zero
- Treatment-emergent neurocognitive disorders [2]: 1 (1.0%) patients (%)
- Treatment-emergent neurologic disorders [2]: 2 (1.9%) patients (%)
- discontinued study treatment early due to a treatment emergent adverse event [2]: 5 (4.9%) patients (%)
- tolerability [2]: well tolerated
- General Allergic TEAEs (SMQ Hypersensitivity) [3, 5]: 2 (1.9%) patients (%)
- SOC Injury, poisoning and procedural complications [3, 5]: 15 (14.4%) patients (%)
- SOC Musculoskeletal and connective tissue disorders [3, 5]: 24 (23.1%) patients (%)
- SOC Neoplasms benign, malignant and unspecified (incl cysts and polyps) [3, 5]: 3 (2.9%) patients (%)
- SOC Nervous system disorders [3, 5]: 10 (9.6%) patients (%)
- TEAEs [3, 5]: 68 (65.4%) patients (%)
- Treatment-emergent SAEs [3, 5]: 4 (3.8%) patients (%)
- Treatment-emergent injection site reactions (ISRs) [3, 5]: 3 (2.9%) patients (%)
- Treatment-emergent neurologic disorders [3, 5]: 3 (2.9%) patients (%)
- discontinued study treatment early due to a treatment emergent adverse event (TEAE) [3, 5]: 7 (6.7%) patients (%)
- Treatment-emergent cardiovascular events adjudicated positively ([3]; Safety Population, pooled treatment groups, ischemia driven coronary revascularization procedure): 2 (1.9%) patients (%)
- TEAE Back pain ([3]; pooled mAb316P group): 7 patients
- TEAE Headache ([3]; pooled mAb316P group): 4 patients
- TEAE Hypertension ([3]; pooled mAb316P group): 5 patients
- TEAE Muscle spasms ([3]; pooled mAb316P group): 4 patients
- TEAE influenza ([3]; pooled mAb316P group): 3 patients
- TEAE nasopharyngitis ([3]; pooled mAb316P group): 5 patients
- TEAE upper respiratory tract infection ([3]; pooled mAb316P group): 5 patients
- TEAE urinary tract infection ([3]; pooled mAb316P group): 3 patients

From patent US20150231236A1, “METHODS FOR TREATING PATIENTS WITH HYPERCHOLESTEROLEMIA THAT IS NOT ADEQUATELY CONTROLLED BY MODERATE-DOSE STATIN THERAPY” (Regeneron Pharmaceuticals, Inc., priority 2014, published 2015)
